Assay results published in patent US20150132307A1 (Hoffmann-La Roche, published 2015).

What was measured:
[1] = molecular target: T1, Human recombinant soluble TWEAK (Example 6) (human, UniProt O43508 99-249, limits assumed); test: cell-based or functional assay
T1 sequence: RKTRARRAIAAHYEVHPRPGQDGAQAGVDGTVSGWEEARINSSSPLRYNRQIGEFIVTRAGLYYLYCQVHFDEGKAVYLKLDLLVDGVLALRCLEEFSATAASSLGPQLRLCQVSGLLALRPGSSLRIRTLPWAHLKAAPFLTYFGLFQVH

[2] = molecular target: T2, Biotinylated human soluble TWEAK (amino acids 99-249 of SEQ ID NO: 68) (human, UniProt O43508 99-249, biotinylated); test: SPR (Biacore), biotinylated soluble TWEAK on streptavidin chip, 37 C
T2 construct: also called Human TWEAK
T2 sequence: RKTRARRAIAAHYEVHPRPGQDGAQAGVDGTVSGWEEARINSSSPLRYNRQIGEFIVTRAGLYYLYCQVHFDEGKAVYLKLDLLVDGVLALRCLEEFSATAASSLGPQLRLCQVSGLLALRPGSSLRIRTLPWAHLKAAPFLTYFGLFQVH

[3] = molecular target: T2, Biotinylated human soluble TWEAK (amino …); test: SPR (Biacore), biotinylated soluble TWEAK on streptavidin chip, 25 C
Method: A Biacore 2000 instrument was used with a Biacore streptavidin coated sensor mounted into the system. The system buffer HBS-ET (10 mM HEPES pH 7.4, 150 mM NaCl, 1 mM EDTA, 0.05% Tween® 20) was used at a flow rate of 100 μl/min. The sample buffer was the system buffer. Biotinylated human soluble TWEAK (amino acids 99-249 of SEQ ID NO: 68) and biotinylated murine soluble TWEAK (amino acids 81-225 of SEQ ID NO: 69) was immobilized on different flow cells on the SA sensor at 150 RU each. The flow cell FC1 was used as a blank reference cell. Each antibody was injected into the system as an analyte at 100 nM at 100 μl/min for 2 min association time. The dissociation of the immunecomplexes were monitored for 5 min. The sensor surface was washed with HBS-ET for 10 seconds and regenerated using 2×2 minutes injections with 10 mM glycine pH 2.25. This procedure was done at 25° C. The kinetically rate limiting step of the complex dissociation phase in the interval [240 s-300 s] was taken to calculate the dissociation rate kd [1/s] (Biacore Evaluation Software 4.0). According to the equation t1/2 diss=ln(2)/(60×kd), the half-life of the immunocomplexes in minutes was calculated.

[4] = molecular target: T3, Mouse soluble TWEAK (untagged, Example 5) (mouse, UniProt O54907 105-249, limits assumed); test: receptor interaction ELISA: mouse soluble TWEAK preincubated with antibody, then on coated mouse Fn14:Fc (competitor m22)
T3 construct: also called Murine TWEAK
T3 sequence: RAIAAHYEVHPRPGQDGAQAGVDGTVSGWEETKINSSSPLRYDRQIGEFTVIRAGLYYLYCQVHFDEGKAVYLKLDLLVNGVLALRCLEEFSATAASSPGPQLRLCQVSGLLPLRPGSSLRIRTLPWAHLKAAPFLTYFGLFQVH
Method: Briefly, Maxisorp plates were coated with mouse Fn14:Fc (extracellular domain of mouse Fn14 (amino acids 1-75 of SEQ ID NO: 98) fused to Fc portion of human IgG1) as described above for human Fn14:Fc, followed by blocking and washing. […] After 1 h of incubation at room temperature and four washes, biotinylated anti-mouse TWEAK antibody at 125 ng/ml in blocking buffer was added for 1 h at room temperature, followed by another four wash steps. The TWEAK antibody was detected by incubation with streptavidin-HRP, diluted 1:5000 in blocking buffer, for 30 minutes at room temperature. Signal was developed and absorbance measured as described above.

[5] = molecular target: T4, human Flag-tagged soluble TWEAK (amino acids 106-249) (human, UniProt O43508 106-249); test: receptor interaction ELISA: Flag-TWEAK preincubated with antibody, then on coated human Fn14:Fc (competitor m21)
T4 construct: The sentence gives amino acids 106-249 without naming the entry; also called Human TWEAK; not shown: Flag tag
T4 sequence: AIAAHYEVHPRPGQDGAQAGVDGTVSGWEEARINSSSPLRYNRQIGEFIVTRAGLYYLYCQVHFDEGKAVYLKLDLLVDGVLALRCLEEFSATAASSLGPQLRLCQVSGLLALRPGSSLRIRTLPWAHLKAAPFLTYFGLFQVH
Method: (§1) 96-well Maxisorp® plates (Nunc) were coated with 100 μl 1 μg/ml human Fn14:Fc (extracellular domain of human Fn14 (amino acids 1-75 of SEQ ID NO: 98) fused to Fc portion of human IgG1) in PBS per well for 1.5 h at room temperature and blocked with a solution of 5% FBS in PBS for 30 minutes at room temperature under shaking. […] After washing the Fn14-coated plate once with wash buffer (0.1% Tween® 20 in PBS), 100 μl of the TWEAK-antibody solution were transferred to each well and the plate was incubated for 1 h at room temperature, followed by four washes with wash buffer. Wells were filled with 100 μl of anti-FLAG-HRP detection antibody, diluted 1:5000 in blocking buffer, and incubated for 1 h at room temperature. After four more wash steps, the signal was developed by addition of 100 μl 3,3,5,5-Tetramethylbenzidine (TMB) solution for approximately ten minutes. The reaction was stopped by adding 100 μl of 1 N HCl, and absorbance measured at 450 nm (reference wavelength 620 nm).

[6] = molecular target: recombinant human IL-17 (Peprotech #200-17) (human, UniProt Q16552 20-155); test: cell-based or functional assay
Sequence of recombinant human IL-17 (Peprotech #200-17) (Q16552 20-155 limits assumed): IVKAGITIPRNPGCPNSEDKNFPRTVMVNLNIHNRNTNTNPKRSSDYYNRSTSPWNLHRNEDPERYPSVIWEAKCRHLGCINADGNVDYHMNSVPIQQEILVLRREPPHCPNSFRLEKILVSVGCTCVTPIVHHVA

[7] = molecular target: T1, Human recombinant soluble TWEAK …; test: cell-based or functional assay; remark: listed apart in the source
[8] = molecular target: T4, human Flag-tagged soluble TWEAK (amino …); test: receptor interaction ELISA: Flag-TWEAK 2.5 ng/ml preincubated with antibody, then on coated human Fn14:Fc (competitor m21)
Method: as §1

B1: Humanized <TWEAK> 305- antibody 28 (antibody, V domains shown)
VH: EVQLLESGGGLVQPGGSLTLSCAASGFDFSTYYMSWVRQAPGKGLEWVSTVYVRQGTTYYASWLNGRFTISRDNSKNTLYLQMNSLRAEDTAVYYCAKGGYNYDDAFVIWGQGTLVTVSS
VL: DIQMTQSPSSVSASVGDRVTITCQASQNIYSNLAWYQQKPGKAPKLLIYTASYLASGVPSRFSGSGSGTDYTLTISSLQPEDFATYYCQTAYYNSRPDTVAFGGGTKVEIK
Inhibition of IL8-Secretion [ng/ml] (A375 cells) [1]: 165 ng/mL | Biacore t/2 diss. [min] 37° C. human [2]: 115 min | Biacore t/2 diss. [min] 25° C. human [3]: 87 min | IC50 [4]: 6.5 ng/mL | IC50 [5]: 1.5 ng/mL

B2: Humanized <TWEAK> 305- antibody 33 (antibody, V domains shown)
VH: QVQLVQSGAEVKKPGSSVKVSCKASGFDFSTYYMSWVRQAPGQGLEWMGTVYVRQGTTYYASWLNGRVTITADESTSTAYMELSSLRSEDTAVYYCARGGYNYDDAFVIWGQGTLVTVSS
VL: AIRMTQSPSSFSASTGDRVTITCQASQNIYSNLAWYQQKPGKAPKLLIYTASYLASGVPSRFSGSGSGTDYTLTISCLQSEDFATYYCQTAYYNSRPDTVAFGGGTKVEIK
Inhibition of IL8-Secretion [ng/ml] (A375 cells) [1]: 26 ng/mL | Biacore t/2 diss. [min] 37° C. human [2]: 99 min | Biacore t/2 diss. [min] 25° C. human [3]: 127 min | IC50 [4]: 6.7 ng/mL | IC50 [5]: 1.7 ng/mL

B3: Humanized <TWEAK> 305- antibody 34 (antibody, V domains shown)
VH: EVQLLESGGGLVQPGGSLRLSCAASGFDFSTYYMSWVRQAPGKGLEWVSTVYVRQGTTYYASWLNGRFTISRDNSKNTLYLQMNSLRAEDTAVYYCAKGGYNYDDAFVIWGQGTLVTVSS
VL: AIRMTQSPSSFSASTGDRVTITCQASQNIYSNLAWYQQKPGKAPKLLIYTASYLASGVPSRFSGSGSGTDYTLTISCLQSEDFATYYCQTAYYNSRPDTVAFGGGTKVEIK
Inhibition of IL8-Secretion [ng/ml] (A375 cells) [1]: 24 ng/mL | Biacore t/2 diss. [min] 37° C. human [2]: 185 min | Biacore t/2 diss. [min] 25° C. human [3]: 158 min | IC50 [4]: 5.9 ng/mL | IC50 [5]: 1.9 ng/mL

B4: Humanized <TWEAK> 305- antibody 30 (antibody, V domains shown)
VH: EVQLLESGGGLVQPGGSLRLSCAASGFDFSTYYMSWVRQAPGKGLEWVSTVYVRQGTTYYASWLNGRFTISRDNSKNTLYLQMNSLTAEDTAVYYCAKGGYNYDDAFVIWGQGTLVTVSS
VL: DIQMTQSPSSVSASVGDRVTITCQASQNIYSNLAWYQQKPGKAPKLLIYTASYLASGVPSRFSGSGSGTDFTLTISSLQPEDFATYYCQTAYYNSRPDTVAFGGGTKVEIK
Inhibition of IL8-Secretion [ng/ml] (A375 cells) [1]: 207 ng/mL | Biacore t/2 diss. [min] 37° C. human [2]: 45 min | Biacore t/2 diss. [min] 25° C. human [3]: 50 min | IC50 [4]: 7.6 ng/mL | IC50 [5]: 2.3 ng/mL

B5: Humanized <TWEAK> 305- antibody 29 (antibody, V domains shown)
VH: EVQLLESGGGLVQPGGSLRLSCAASGFDFSTYYMSWVRQAPGKGLEWVSTVYVRQGTTYYASWLNGRFTISRDNSKNTLDLQMNSLRAEDTAVYYCAKGGYNYDDAFVIWGQGTLVTVSS
VL: DIQMTQSPSSVSASVGDRVTITCQASQNIYSNLAWYQQKPGKAPKLLIYTASYLASGVPSRFSGSGSGTDYTLTISSLQPEDFATYYCQTAYYNSRPDTVAFGGGTKVEIK
Inhibition of IL8-Secretion [ng/ml] (A375 cells) [1]: 78 ng/mL | Biacore t/2 diss. [min] 37° C. human [2]: 195 min | Biacore t/2 diss. [min] 25° C. human [3]: 146 min | IC50 [4]: 5.7 ng/mL | IC50 [5]: 1.8 ng/mL

B6: Humanized <TWEAK> 305- antibody 31 (antibody, V domains shown)
VH: EVQLLESGGGLVQPGGSLTLSCAASGFDFSTYYMSWVRQAPGKGLEWVSTVYVRQGTTYYASWLNGRFTISRDNSKNTLYLQMNSLRAEDTAVYYCAKGGYNYDDAFVIWGQGTLVTVSS
VL: AIRMTQSPSSFSASTGDRVTITCQASQNIYSNLAWYQQKPGKAPKLLIYTASYLASGVPSRFSGSGSGTDYTLTISCLQSEDFATYYCQTAYYNSRPDTVAFGGGTKVEIK
Inhibition of IL8-Secretion [ng/ml] (A375 cells) [1]: 94 ng/mL | Biacore t/2 diss. [min] 37° C. human [2]: 151 min | Biacore t/2 diss. [min] 25° C. human [3]: 115 min | IC50 [4]: 7.1 ng/mL | IC50 [5]: 1.7 ng/mL

B7: Humanized <TWEAK> 305- antibody 32 (antibody, V domains shown)
VH: EVQLLESGGGLVQPGGSLRLSCAASGFDFSTYYMSWVRQAPGKGLEWVSTVYVRQGTTYYASWLNGRFTISRDNSKNTLDLQMNSLRAEDTAVYYCAKGGYNYDDAFVIWGQGTLVTVSS
VL: DIQMTQSPSTLSASVGDRVTITCQASQNIYSNLAWYQQKPGKAPKLLIYTASYLASGVPSRFSGSGSGTEFTLTISSLQPDDFATYYCQTAYYNSRPDTVAFGGGTKVEIK
Inhibition of IL8-Secretion [ng/ml] (A375 cells) [1]: 134 ng/mL | Biacore t/2 diss. [min] 37° C. human [2]: 50 min | Biacore t/2 diss. [min] 25° C. human [3]: 67 min | IC50 [4]: 5.4 ng/mL | IC50 [5]: 1.5 ng/mL

B8: Bispecific <Tweak-IL-17> #21 antibody (bispecific antibody, human IgG4 S228P, kappa)
heavy 1: EVQLVESGGGLVQPGGSLRLSCAASGFSLDSYGVHWVRQAPGKGLEWVSVIWSDGTTTYNSALKSRFTISRDNSKNTLYLQMNSLRAEDTAVYYCARDTHYRLYYYAMDYWGQGTTVTVSSASTKGPSVFPLAPCSRSTSESTAALGCLVKDYFPEPVTVSWNSGALTSGVHTFPAVLQSSGLYSLSSVVTVPSSSLGTKTYTCNVDHKPSNTKVDKRVESKYGPPCPPCPAPEFEGGPSVFLFPPKPKDTLMISRTPEVTCVVVDVSQEDPEVQFNWYVDGVEVHNAKTKPREEQFNSTYRVVSVLTVLHQDWLNGKEYKCKVSNKGLPSSIEKTISKAKGQPREPQVCTLPPSQEEMTKNQVSLSCAVKGFYPSDIAVEWESNGQPENNYKTTPPVLDSDGSFFLVSRLTVDKSRWQEGNVFSCSVMHEALHNHYTQKSLSLSLGK
heavy 2: not shown
light: DIVMTQSPLSLPVTPGEPASISCRSSQSLVHSNGDTYFHWYLQKPGQSPQLLIYKVSNRFSGVPDRFSGSGSGTDFTLKISRVEAEDVGVYYCSQTTHAPFTFGQGTKLEIKRTVAAPSVFIFPPSDEQLKSGTASVVCLLNNFYPREAKVQWKVDNALQSGNSQESVTEQDSKDSTYSLSSTLTLSKADYEKHKVYACEVTHQGLSSPVTKSFNRGEC
IL-6 IC50 [nM] per valency (IL-17 induced cytokine production, HFLS-RA) [6]: 2.71 nM | IL-8 IC50 [nM] per valency (IL-17 induced cytokine production, HFLS-RA) [6]: 1.71 nM

B9: <TWEAK> 305 (rabbit) (antibody, V domains shown)
VH: QEQLVESGGGLVQPGGSLTLSCKASGFDFSTYYMSWVRQAPGKGLEWIGTVYVRQGTTYYASWLNGRFTISSDNAQNTVDLKMNSLTAADTATYFCAKGGYNYDDAFVIWGPGTLVTVSF
VL: AIEMTQTPFSVSAAVGGTVTINCQASQNIYSNLAWYQQKPGQPPKLLMYTASYLASGVPSRFKGSGSRTEYTLTISGVQCADAATYYCQTAYYNSRPDTVAFGGGTEVVVK
notes: Rabbit parent antibody
Inhibition of IL-8 Secretion IC50 [ng/ml] (A375 cells) [7]: 99 ng/mL | IC50 [8]: 2.5 ng/mL
